Among the data in patent publication US20240116985A1 (published 2024) are IC50 and EC50 values, retold here.

Experiment [1] has as its target T1, full-length beta-Catenin (Uniprot ID P35222) (Homo sapiens (Human), UniProt P35222 2-781).
T1 construct: also called bCat; B-Catenin
T1 sequence: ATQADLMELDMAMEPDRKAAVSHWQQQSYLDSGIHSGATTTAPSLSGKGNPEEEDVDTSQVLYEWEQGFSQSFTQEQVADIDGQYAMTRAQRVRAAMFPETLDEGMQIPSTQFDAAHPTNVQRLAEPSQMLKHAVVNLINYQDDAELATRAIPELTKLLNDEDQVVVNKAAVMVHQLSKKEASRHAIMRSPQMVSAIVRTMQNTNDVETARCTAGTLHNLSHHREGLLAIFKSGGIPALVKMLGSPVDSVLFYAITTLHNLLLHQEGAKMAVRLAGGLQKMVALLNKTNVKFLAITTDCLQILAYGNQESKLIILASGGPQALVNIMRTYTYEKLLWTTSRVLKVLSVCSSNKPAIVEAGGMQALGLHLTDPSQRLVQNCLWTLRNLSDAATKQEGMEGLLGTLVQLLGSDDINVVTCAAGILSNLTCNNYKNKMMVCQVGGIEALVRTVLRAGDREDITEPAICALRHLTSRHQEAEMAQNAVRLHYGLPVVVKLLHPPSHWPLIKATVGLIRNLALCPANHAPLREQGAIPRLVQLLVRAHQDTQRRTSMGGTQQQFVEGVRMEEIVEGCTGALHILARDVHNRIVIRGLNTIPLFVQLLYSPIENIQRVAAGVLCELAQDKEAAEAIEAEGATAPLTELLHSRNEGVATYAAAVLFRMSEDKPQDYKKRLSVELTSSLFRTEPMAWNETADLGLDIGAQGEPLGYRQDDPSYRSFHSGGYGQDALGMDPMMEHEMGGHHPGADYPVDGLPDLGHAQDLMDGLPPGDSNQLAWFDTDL
The experiment in a line: fluorescence polarization competition; full-length beta-catenin, 5FAM-TCF4(10-53) probe as competitor. How it is done: (§1) The plate was incubated protected from light for 60 minutes at 20° C. prior to read. Reads were performed on a CLARIOstar plate reader (BMG Labtech) in duplicate, and data were fitted to a 1:1 binding model with hill slope using an in-house script. All provided concentrations are final concentrations.

For experiment [2], the target named is T2, full-length beta-Catenin (Uniprot ID P35222) (Homo sapiens (Human), UniProt P35222 2-781).
T2 construct: The assay protocols say only 'full-length'; No tag is stated, although the AlphaScreen kit is a Histidine (Nickel Chelate) kit; also called B-Catenin; bCat
T2 sequence: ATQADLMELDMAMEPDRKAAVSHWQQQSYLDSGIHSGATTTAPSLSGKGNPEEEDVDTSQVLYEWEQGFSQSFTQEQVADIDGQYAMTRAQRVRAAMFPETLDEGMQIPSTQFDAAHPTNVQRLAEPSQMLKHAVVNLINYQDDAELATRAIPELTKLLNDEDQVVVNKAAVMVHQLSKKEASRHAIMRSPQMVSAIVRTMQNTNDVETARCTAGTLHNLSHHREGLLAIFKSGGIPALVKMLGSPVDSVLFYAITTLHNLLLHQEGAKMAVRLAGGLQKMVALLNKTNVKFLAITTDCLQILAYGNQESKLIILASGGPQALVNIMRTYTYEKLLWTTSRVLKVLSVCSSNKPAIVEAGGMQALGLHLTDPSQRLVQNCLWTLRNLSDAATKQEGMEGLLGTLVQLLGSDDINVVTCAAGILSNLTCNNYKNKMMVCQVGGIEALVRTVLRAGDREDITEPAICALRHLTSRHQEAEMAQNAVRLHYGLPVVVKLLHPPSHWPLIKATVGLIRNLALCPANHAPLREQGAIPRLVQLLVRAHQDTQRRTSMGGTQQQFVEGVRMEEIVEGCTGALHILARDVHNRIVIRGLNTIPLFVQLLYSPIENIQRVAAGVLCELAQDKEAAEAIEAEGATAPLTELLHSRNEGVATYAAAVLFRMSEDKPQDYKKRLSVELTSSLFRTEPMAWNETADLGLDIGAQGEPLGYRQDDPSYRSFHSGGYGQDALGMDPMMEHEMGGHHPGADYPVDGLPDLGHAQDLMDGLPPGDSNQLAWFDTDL
The experiment in a line: AlphaScreen competition; peptide titrated against full-length beta-catenin + biotin-TCF4(10-53). How it is done: Equal volume of the titrated peptide was added to the plate and incubated for 15 minutes at 20° C. Then 4 uL of donor and 4 uL acceptor beads at 10 ug/mL were added to the plate, for a 16 uL reaction pool and protected from light for 60 minutes at 20° C. prior to read. Reads were performed on a CLARIOstar plate reader (BMG Labtech) in duplicate, and data were fitted to a 1:1 binding model with hill slope using an in-house script. All provided concentrations are final concentrations.

The target of experiment [3] is T3, full-length beta-Catenin (Uniprot ID P35222) (Homo sapiens (Human), UniProt P35222 2-781).
T3 construct: also called bCat; B-Catenin
T3 sequence: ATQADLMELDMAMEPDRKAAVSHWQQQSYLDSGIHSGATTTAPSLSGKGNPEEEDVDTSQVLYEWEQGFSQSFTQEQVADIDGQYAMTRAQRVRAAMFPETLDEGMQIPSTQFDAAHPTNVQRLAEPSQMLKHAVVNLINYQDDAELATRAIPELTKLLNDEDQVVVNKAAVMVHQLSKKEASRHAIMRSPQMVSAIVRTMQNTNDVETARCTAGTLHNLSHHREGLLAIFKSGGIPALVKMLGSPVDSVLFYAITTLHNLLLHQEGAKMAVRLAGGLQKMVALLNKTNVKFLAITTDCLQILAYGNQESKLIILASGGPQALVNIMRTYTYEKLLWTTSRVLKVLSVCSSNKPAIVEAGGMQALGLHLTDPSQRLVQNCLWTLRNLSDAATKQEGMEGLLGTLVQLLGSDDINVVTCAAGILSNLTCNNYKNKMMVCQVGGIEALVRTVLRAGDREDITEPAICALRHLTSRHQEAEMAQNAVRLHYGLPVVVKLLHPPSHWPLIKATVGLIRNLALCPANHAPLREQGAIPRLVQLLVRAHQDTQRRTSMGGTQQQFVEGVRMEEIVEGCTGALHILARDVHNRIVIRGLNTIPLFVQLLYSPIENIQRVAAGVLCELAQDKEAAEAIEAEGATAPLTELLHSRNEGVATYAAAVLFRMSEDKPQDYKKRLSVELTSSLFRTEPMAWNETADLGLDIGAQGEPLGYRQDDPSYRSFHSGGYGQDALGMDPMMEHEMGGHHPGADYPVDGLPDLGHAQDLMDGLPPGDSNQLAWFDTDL
The experiment in a line: fluorescence polarization competition vs 5FAM-TCF4(10-53) on full-length beta-catenin. On the procedure:
as §1

Experiment [4] addresses T4, Bcat-Halo (UniProt P35222 1-781, HaloTag NanoBRET 618 Ligand bound in the assay).
T4 construct: Expressed by transfection in HEK293 cells; also called beta-catenin HaloTag NanoBRET construct; not shown: HaloTag
T4 sequence (looked up): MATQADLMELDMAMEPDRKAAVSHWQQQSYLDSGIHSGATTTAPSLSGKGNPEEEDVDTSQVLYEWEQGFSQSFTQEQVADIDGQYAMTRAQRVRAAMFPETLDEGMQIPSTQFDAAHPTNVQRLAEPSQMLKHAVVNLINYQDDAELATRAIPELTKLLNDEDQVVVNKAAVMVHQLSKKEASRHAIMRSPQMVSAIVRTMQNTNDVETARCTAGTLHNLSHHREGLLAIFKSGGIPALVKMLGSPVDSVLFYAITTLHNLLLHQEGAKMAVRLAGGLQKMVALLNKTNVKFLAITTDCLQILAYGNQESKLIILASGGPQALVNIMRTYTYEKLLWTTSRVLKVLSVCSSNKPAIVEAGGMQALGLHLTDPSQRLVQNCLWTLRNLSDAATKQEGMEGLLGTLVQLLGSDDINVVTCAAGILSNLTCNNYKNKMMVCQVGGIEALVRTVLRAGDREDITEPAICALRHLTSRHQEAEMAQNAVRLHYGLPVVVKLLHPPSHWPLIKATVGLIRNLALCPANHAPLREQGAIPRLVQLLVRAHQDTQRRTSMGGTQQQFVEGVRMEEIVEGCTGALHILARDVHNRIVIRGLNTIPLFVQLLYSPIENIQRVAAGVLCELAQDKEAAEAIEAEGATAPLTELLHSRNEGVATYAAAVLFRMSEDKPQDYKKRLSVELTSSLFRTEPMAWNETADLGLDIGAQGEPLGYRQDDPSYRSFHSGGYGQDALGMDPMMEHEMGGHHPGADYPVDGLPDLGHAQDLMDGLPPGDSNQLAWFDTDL
The experiment in a line: NanoBRET Abs IC50 in HEK293 cells; competitor TCF4-Luc on Bcat-Halo.

Starred links: 1 amine or outer side, 2 acyl side, 3 side chain; linkers in the order of their positions; H or OH if unused. Positions of bridges follow the written chain, without caps; N, C: chain ends. Non-standard residues stand in square brackets, D forms with d. Primed or numbered codes have the meaning given here. PyrS2″ = (S)-3-amino-1-((pent-4-en-1-yloxy)carbonyl)pyrrolidine-3-carboxylic acid (stapling residue), C=CCCCOC(=O)N1CC[C@@](N[*:1])(C(=O)[*:2])C1; B5(16) = 2-amino-2-(pent-4-en-1-yl)hept-6-enoic acid = 2,2-bis(4-pentenyl)glycine (stitching residue), C=CCCCC(CCCC=C)(N[*:1])C(=O)[*:2]; B5(24) = 2-amino-2-(pent-4-en-1-yl)hept-6-enoic acid, 2,2-bis(4-pentenyl)glycine (stitching residue), C=CCCCC(CCCC=C)(N[*:1])C(=O)[*:2]; B5(4) = 2,2-bis(4-pentenyl)glycine = 2-amino-2-(pent-4-en-1-yl)hept-6-enoic acid (stitching residue), C=CCCCC(CCCC=C)(N[*:1])C(=O)[*:2]; PyrS2 = (S)-3-amino-1-((pent-4-en-1-yloxy)carbonyl)pyrrolidine-3-carboxylic acid, C=CCCCOC(=O)N1CC[C@@](N[*:1])(C(=O)[*:2])C1; B5 = 2-amino-2-(pent-4-en-1-yl)hept-6-enoic acid, C=CCCCC(CCCC=C)(N[*:1])C(=O)[*:2]; Trp(1-Me) = Cn1cc(C[C@H](N)C(=O)O)c2ccccc21; Phe(2-Cl) = N[C@@H](Cc1ccccc1Cl)C(=O)O; Bta = N[C@@H](Cc1csc2ccccc12)C(=O)O; Lys(iPr) = CC(C)NCCCC[C@H](N)C(=O)O; αAllylPro = C=CC[C@@]1(C(=O)O)CCCN1; tBuAla = CC(C)(C)C[C@H](N)C(=O)O; hSer = N[C@@H](CCO)C(=O)O

On to Ac-[αAllylPro]N[tBuAla][B5(4)]DT[Lys(iPr)]AFL[PyrS2″]F[Trp(1-Me)]Q-NH2 (staple 1-4, 4-11) [I-1589], for which the IC50 in experiment [1] stood at 10 µM.

Ac-[αAllylPro]N[tBuAla][B5(4)]DT[Lys(iPr)]AFL[PyrS2]YWQ-NH2 (staple 1-4, 4-11) [I-1590] registered an IC50 in experiment [1] of 7.52 µM. The same measure, in the same setting: the figure for Ac-[αAllylPro]N[tBuAla][B5(4)]DT[Lys(iPr)]AFL[PyrS2″]FYQ-NH2 (staple 1-4, 4-11) [I-1585] is 10 µM.

B1: I-349 (peptide)
peptide: XAAXDDAAFVXFWQ
modifications: not fully specified; N-terminal Ac; C-terminal NH2; PL3 at 1, B5 at 4, S8 at 11 (stapled 1-4 and 4-11)
notes: Stapled peptide composition; Later-eluting isomer composition; also called Ac-PL3-Ala-Ala-B5-Asp-Asp-Ala-Ala-Phe-Val-S8-Phe-Trp-Gln-NH2
B1: the EC50 in experiment [2] came to 7.19 µM.

B2: I-351 (peptide)
peptide: XDAXADAAFVXFWQ
modifications: not fully specified; N-terminal Ac; C-terminal NH2; PL3 at 1, B5 at 4, S8 at 11 (stapled 1-4 and 4-11)
notes: Stapled peptide composition; Later-eluting isomer composition; also called Ac-PL3-Asp-Ala-B5-Ala-Asp-Ala-Ala-Phe-Val-S8-Phe-Trp-Gln-NH2
B2: in experiment [2], the EC50 was determined as 10 µM.

B3: I-1142 (peptide)
peptide: Ac-[αAllylPro]DF[B5]DDAAFS[PyrS2][Phe(2-Cl)][Bta][dT]-NH2
modifications: staple 1-4, 4-11
notes: Stapled (stitched) peptide composition; olefin isomer not specified
In the case of B3, the IC50 is 0.022 µM in experiment [3] and over 20 µM in experiment [4].

B4: I-1157 (peptide)
peptide: Ac-[αAllylPro]DF[B5(4)]DDALFT[PyrS2″][Phe(2-Cl)][Bta]S-NH2
modifications: staple 1-4, 4-11
notes: as for B3
As for B4, the figures for the IC50 in experiment [3] and in experiment [4] were 0.036 µM and over 20 µM, respectively.

B5: I-1156 (peptide)
peptide: Ac-[αAllylPro]DF[B5(4)]DDLAFT[PyrS2″][Phe(2-Cl)][Bta]S-NH2
modifications: staple 1-4, 4-11
notes: as for B3
Take B5: the IC50 in experiment [3] was 0.014 µM; in experiment [4], 26.1 µM.

B6: I-1141 (peptide)
peptide: Ac-[αAllylPro]DF[B5(24)]DDAAFS[PyrS2″][Phe(2-Cl)][Bta]T-NH2
modifications: staple 1-4, 4-11
notes: as for B3
In the case of B6, the IC50 in experiment [4] was 27.3 µM.

B7: I-1143 (peptide)
peptide: Ac-[αAllylPro]DF[B5]DDAAFS[PyrS2][Phe(2-Cl)][Bta][hSer]-NH2
modifications: staple 1-4, 4-11
notes: as for B3
On to B7, for which the IC50 in experiment [3] worked out at 0.012 µM; in experiment [4], 33.1 µM.

B8: I-1145 (peptide)
peptide: Ac-[αAllylPro]DF[B5]DDAAFL[PyrS2][Phe(2-Cl)][Bta]T-NH2
modifications: staple 1-4, 4-11
notes: as for B3
Take B8: the IC50 in experiment [3] stood at 0.018 µM; in experiment [4] it was 30.6 µM.

B9: I-1146 (peptide)
peptide: Ac-[αAllylPro]DF[B5(16)]DDAAFL[PyrS2″][Phe(2-Cl)][Bta][dT]-NH2
modifications: staple 1-4, 4-11
notes: as for B3
For the molecule B9, the half-inhibitory concentration (IC50) in experiment [3] is 0.033 µM; in experiment [4], over 20 µM.

B10: I-1144 (peptide)
peptide: Ac-[αAllylPro]DF[B5(24)]DDAAFS[PyrS2″][Phe(2-Cl)][Bta]L-NH2
modifications: staple 1-4, 4-11
notes: as for B3
In experiment [4], B10 came in with an IC50 of 32.8 µM.
